The supplement of paper PMC7877785
± gives the uncertainty stated by the source.

Test: self-splicing fitness, log relative to wild type (ln ratio); higher = more splicing; Tetrahymena group I intron in knt gene, E. coli kanamycin selection, DiMSum; sequences stand for … in CUCUCU…GGAGGGAAAAGUUAUCAGGCAUGCACCUGGUAGCUAGUCUUUAAACCAAUAGAUUGCAUCGGUUUAAAAGGCAAGACCGUCAAAUUGCGGGAAAGGGGUCAACAGCCGUUCAGUACCAAGUCUCAGGGGAAACUUUGAGAUGGCCUUGCAAAGGGUAUGGUAAUAAGCUGACGGACAUGGUCCUAACCACGCAGCCAAGUCCUAAGUCAACAGAUCUUCUGUUGAUAUGGAUGCAGUUCACAGACUAAAUGUCGGUCGGGGAAGAUGUAUUCUUCUCAUAAGAUAUAGUCGGACCUCUCCUUAAUGGGAGCUAGCGGAUGAAGUGAUGCAACACUGGAGCCGCUGGGAACUAAUUUGUAUGCGAAAGUAUAUUGAUUAGUUUUGGAGUACUCGUGGUCG
Summary of the method: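 A randomised library covering all eight P1ex-region intron nucleotides was built with the intron in the knt kanamycin-resistance gene on pET-22b(+) and held in E. coli BL21(DE3). Cells were grown overnight at 37°C or 30°C on LB agar, with or without 25 μg/mL kanamycin, plus 100 μg/mL carbenicillin, 50 μM IPTG and 0.2% rhamnose, and pooled colonies were amplicon-sequenced on an Illumina HiSeq 2500. DiMSum fitness is the error-weighted combination of wild-type-normalised replicate fold changes, kanamycin versus none.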

Sequence | self-splicing fitness (ln) (30 °C) | self-splicing fitness (ln) (37 °C)
CCUCAGCAAUAUUACGAGUC | -3.88 ± 0.34 | -2.27 ± 0.26
CCUCAGCAAUAUUACGAUAG | -0.572 ± 0.067 | -1.24 ± 0.1
CCUCAGCAAUAUUACGCAUA | -2.47 ± 0.17 | -2.19 ± 0.17
CCUCAGCAAUAUUACGCCAC | -3.18 ± 0.36 | -2.12 ± 0.41
CCUCAGCAAUAUUACGCCUG | -2.38 ± 0.081 | -1.72 ± 0.11
CCUCAGCAAUAUUACGCGCG | -2.78 ± 0.13 | -1.45 ± 0.13
CCUCAGCAAUAUUACGCUGG | -2.55 ± 0.12 | -2.41 ± 0.17
CCUCAGCAAUAUUACGGAGA | -2.8 ± 0.18 | -1.4 ± 0.15
CCUCAGCAAUAUUACGGAUC | – | -1.41 ± 0.22
CCUCAGCAAUAUUACGGGGC | -3.68 ± 0.14 | -2.98 ± 0.19
CCUCAGCAAUAUUACGGGGU | -3.88 ± 0.15 | -3.49 ± 0.2
CCUCAGCAAUAUUACGGUAG | -0.514 ± 0.05 | -0.195 ± 0.067
CCUCAGCAAUAUUACGGUGC | -2.28 ± 0.15 | -2.77 ± 0.48
CCUCAGCAAUAUUACGGUGG | -4.11 ± 0.16 | -2.41 ± 0.16
CCUCAGCAAUAUUACGGUUA | -3.34 ± 0.21 | -3.26 ± 0.19
CCUCAGCAAUAUUACGGUUG | -2.28 ± 0.085 | -0.828 ± 0.094
CCUCAGCAAUAUUACGUAGA | -3.97 ± 0.28 | -2.8 ± 0.3
CCUCAGCAAUAUUACGUAUG | -1.75 ± 0.075 | -0.495 ± 0.079
CCUCAGCAAUAUUACGUCCU | -4.39 ± 0.31 | -2.68 ± 0.3
CCUCAGCAAUAUUACGUGUG | -1.4 ± 0.061 | -0.812 ± 0.062
CCUCAGCAAUAUUACGUUGU | -4.98 ± 0.23 | -2.52 ± 0.13
CCUCAGCAAUAUUACGUUUU | -4.52 ± 0.27 | -3.03 ± 0.17
CCUGAGCAAUAUUACGAAAA | -3.64 ± 0.35 | -2.52 ± 0.37
CCUGAGCAAUAUUACGAACC | -3.35 ± 0.3 | –
CCUGAGCAAUAUUACGACUG | -1.38 ± 0.16 | -1.25 ± 0.19

Sequence | self-splicing fitness (ln) (30 °C) | self-splicing fitness (ln) (37 °C)
CCUGAGCAAUAUUACGAGCG | -2.57 ± 0.14 | -0.727 ± 0.14
CCUGAGCAAUAUUACGAGGG | -3.48 ± 0.19 | -2.22 ± 0.23
CCUGAGCAAUAUUACGAGUA | -2.98 ± 0.21 | -3.03 ± 0.43
CCUGAGCAAUAUUACGAUCU | -4.01 ± 0.39 | –
CCUGAGCAAUAUUACGAUUG | -2.48 ± 0.17 | -2.83 ± 0.27
CCUGAGCAAUAUUACGCAAA | -2.19 ± 0.26 | -2.42 ± 0.28
CCUGAGCAAUAUUACGCAGG | -2.64 ± 0.27 | -3.36 ± 0.42
CCUGAGCAAUAUUACGCAUA | -3.03 ± 0.32 | -2.83 ± 0.47
CCUGAGCAAUAUUACGCCGA | -3.1 ± 0.39 | -3.2 ± 0.4
CCUGAGCAAUAUUACGCGCU | -4.19 ± 0.39 | -2.1 ± 0.24
CCUGAGCAAUAUUACGCGUG | -3.05 ± 0.19 | -2.82 ± 0.22
CCUGAGCAAUAUUACGCUUU | -1.94 ± 0.17 | -3.14 ± 0.28
CCUGAGCAAUAUUACGGAGC | -1.59 ± 0.47 | -1.9 ± 0.38
CCUGAGCAAUAUUACGGGAC | -4.19 ± 0.46 | -2.08 ± 0.27
CCUGAGCAAUAUUACGGGAG | -4.51 ± 0.27 | -2.65 ± 0.2
CCUGAGCAAUAUUACGGGGC | -3.49 ± 0.28 | –
CCUGAGCAAUAUUACGGUGC | -2.51 ± 0.25 | -2.15 ± 0.43
CCUGAGCAAUAUUACGUAAA | – | -2.49 ± 0.33
CCUGAGCAAUAUUACGUAUU | -2.38 ± 0.16 | -2.98 ± 0.21
CCUGAGCAAUAUUACGUCAC | – | -1.54 ± 0.31
CCUGAGCAAUAUUACGUCAG | -2.64 ± 0.099 | -2.19 ± 0.099
CCUGAGCAAUAUUACGUCUC | – | -3.42 ± 0.37
CCUGAGCAAUAUUACGUGAU | -3.68 ± 0.24 | -3.54 ± 0.33
CCUGAGCAAUAUUACGUGGA | -3.5 ± 0.2 | -2.03 ± 0.18
CCUGAGCAAUAUUACGUGUC | -4.13 ± 0.21 | -2 ± 0.13

Sequence | self-splicing fitness (ln) (30 °C) | self-splicing fitness (ln) (37 °C)
CCUGAGCAAUAUUACGUUCA | -3.2 ± 0.43 | -2.59 ± 0.32
CCUGAGCAAUAUUACGUUCC | -2.52 ± 0.28 | -2.5 ± 0.42
CCUGAGCAAUAUUACGUUCG | -3.43 ± 0.26 | -2.87 ± 0.38
CCUUAGCAAUAUUACGACGC | -3.94 ± 0.33 | -2.51 ± 0.29
CCUUAGCAAUAUUACGAGGA | -2.8 ± 0.25 | -1.69 ± 0.27
CCUUAGCAAUAUUACGAGGC | -4.12 ± 0.29 | -1.6 ± 0.27
CCUUAGCAAUAUUACGCUAA | -3.35 ± 0.4 | -1.97 ± 0.2
CCUUAGCAAUAUUACGCUCC | – | -1.44 ± 0.5
CCUUAGCAAUAUUACGCUCU | -3.8 ± 0.43 | -0.731 ± 0.38
CCUUAGCAAUAUUACGCUGU | -3.42 ± 0.2 | -2.49 ± 0.19
CCUUAGCAAUAUUACGGACC | -2.33 ± 0.3 | –
CCUUAGCAAUAUUACGGAGA | -3.46 ± 0.37 | -2.41 ± 0.42
CCUUAGCAAUAUUACGGGAA | -3.02 ± 0.18 | -2.76 ± 0.19
CCUUAGCAAUAUUACGGGAU | -3.68 ± 0.29 | -2.68 ± 0.27
CCUUAGCAAUAUUACGGGGA | -3.75 ± 0.29 | -2.63 ± 0.23
CCUUAGCAAUAUUACGGGUC | -4.43 ± 0.3 | -2.86 ± 0.38
CCUUAGCAAUAUUACGGGUG | -1.5 ± 0.065 | -0.759 ± 0.081
CCUUAGCAAUAUUACGGUGU | -3.82 ± 0.24 | -2.81 ± 0.23
CCUUAGCAAUAUUACGUACG | -2.45 ± 0.22 | -2.2 ± 0.29
CCUUAGCAAUAUUACGUAGA | -4.13 ± 0.34 | -0.769 ± 0.17
CCUUAGCAAUAUUACGUCAA | -2.87 ± 0.33 | –
CCUUAGCAAUAUUACGUCCA | – | -1.92 ± 0.33
CCUUAGCAAUAUUACGUGUC | -2.66 ± 0.26 | -0.776 ± 0.21
CCUUAGCAAUAUUACGUUCA | -3.3 ± 0.47 | -2.9 ± 0.47
CCUUAGCAAUAUUACGUUCC | -3.14 ± 0.31 | -2.51 ± 0.34

Sequence | self-splicing fitness (ln) (30 °C) | self-splicing fitness (ln) (37 °C)
CCUUAGCAAUAUUACGUUGC | -3.68 ± 0.38 | -3.31 ± 0.3
CCUUAGCAAUAUUACGUUUU | -4.8 ± 0.31 | -2.85 ± 0.28
CGAAAGCAAUAUUACGACAU | -2.721 ± 0.017 | -1.41 ± 0.034
CGAAAGCAAUAUUACGACCA | -1.24 ± 0.14 | -1.24 ± 0.15
CGAAAGCAAUAUUACGACGA | -0.59 ± 0.094 | 0.312 ± 0.09
CGAAAGCAAUAUUACGAGAU | -3.54 ± 0.34 | -1.55 ± 0.17
CGAAAGCAAUAUUACGAGCG | -0.778 ± 0.098 | -0.277 ± 0.11
CGAAAGCAAUAUUACGCCGG | -0.615 ± 0.14 | 0.34 ± 0.17
CGAAAGCAAUAUUACGCCUU | -2.73 ± 0.44 | -1.11 ± 0.28
CGAAAGCAAUAUUACGCUGG | -1.66 ± 0.11 | -0.903 ± 0.14
CGAAAGCAAUAUUACGGCGU | -0.379 ± 0.074 | 0.313 ± 0.11
CGAAAGCAAUAUUACGGCUA | -1.72 ± 0.13 | -1.6 ± 0.14
CGAAAGCAAUAUUACGGGUG | 0.0165 ± 0.043 | 0.189 ± 0.063
CGAAAGCAAUAUUACGGUCC | -0.283 ± 0.087 | -0.129 ± 0.13
CGAAAGCAAUAUUACGGUGG | -0.576 ± 0.046 | 0.0831 ± 0.066
CGAAAGCAAUAUUACGUAAA | -2.45 ± 0.23 | -1.92 ± 0.31
CGAAAGCAAUAUUACGUAUC | -3.76 ± 0.2 | -3.21 ± 0.23
CGAAAGCAAUAUUACGUCGG | -0.496 ± 0.06 | -0.0301 ± 0.071
CGAAAGCAAUAUUACGUCUA | -0.692 ± 0.25 | -0.962 ± 0.17
CGAAAGCAAUAUUACGUGGG | -2.3 ± 0.098 | -2.46 ± 0.14
CGAAAGCAAUAUUACGUGUC | -3.94 ± 0.34 | -2.71 ± 0.22
CGACAGCAAUAUUACGAAAA | -3.75 ± 0.26 | -1.93 ± 0.2
CGACAGCAAUAUUACGAACA | -2.16 ± 0.14 | -0.404 ± 0.11
